The results in this text go back to patent US10253076B2, “Peptides and combination of peptides for use in immunotherapy against ovarian cancer and other cancers” (immatics biotechnologies GmbH, priority 2015, dated 2019).

The assay concerns the target HLA-A*02:01 (Homo sapiens, UniProt P04439, D140Y/D185E/D98H/E176V/E277Q/G131W/G231S/I119V/I121R/I166T/I218V/L300P/L318F/N151K/N90K/P208A/P217A/Q86G/Q94H/R138H/R169H/T345S). Put plainly: MHC binding assay (UV-ligand exchange, beta2m ELISA, peptide exchange yield). The following applies: binding of HLA-class I restricted peptides to HLA-A*02:01, ranged by peptide exchange yield (UV-ligand exchange, β2m ELISA). The source says: Candidate peptides for T cell based therapies according to the present invention were further tested for their MHC binding capacity (affinity). The individual peptide-MHC complexes were produced by UV-ligand exchange, where a UV-sensitive peptide is cleaved upon UV-irradiation, and exchanged with the peptide of interest as analyzed. Only peptide candidates that can effectively bind and stabilize the peptide-receptive MHC molecules prevent dissociation of the MHC complexes. To determine the yield of the exchange reaction, an ELISA was performed based on the detection of the light chain (β2m) of stabilized MHC complexes. The assay was performed as generally described in Rodenko et al. (Rodenko et al., 2006).
96 well MAXISorp plates (NUNC) were coated over night with 2ug/ml streptavidin in PBS at room temperature, washed 4× and blocked for 1 h at 37° C. in 2% BSA containing blocking buffer. […] Peptide-MHC monomers of the UV-exchange reaction were diluted 100 fold in blocking buffer. Samples were incubated for 1 h at 37° C., washed four times, incubated with 2ug/ml HRP conjugated anti-82m for 1 h at 37° C., washed again and detected with TMB solution that is stopped with […]. Absorption was measured at 450 nm. Candidate peptides that show a high exchange yield (preferably higher than 50%, most preferred higher than 75%) are generally preferred for a generation and production of antibodies or fragments thereof, and/or T cell receptors or fragments thereof, as they show sufficient avidity to the MHC molecules and prevent dissociation of the MHC complexes.
In general terms: An ELISA detects its analyte on a solid surface through an enzyme-linked reagent.

Regarding “13 (YLMDESLNL; listed as Homo sapiens) [compound 13]”, the Peptide exchange entry was “″+++″ (≥50% = +++)”. Consider “592 (RLLSAAENFL; listed as Homo sapiens) [compound 592]”, for which the Peptide exchange entry was “″+++″ (≥50% = +++)”. The value for “269 (RVLEVGALQAV; listed as Homo sapiens) [compound 269]” was “″++″ (≥20% = ++)”; that for “403 (KLYDRILRV; listed as Homo sapiens) [compound 403]” was “″++″ (≥20% = ++)”; that for “55 (SLLDLETLSL; listed as Homo sapiens) [compound 55]” was “″++++″ (≥75% = ++++)”.

As for “325 (FIMPATVADATAV; listed as Homo sapiens) [compound 325]”, the Peptide exchange entry is listed as “″+++″ (≥50% = +++)”. The entry for “441 (ALLENPKMEL; listed as Homo sapiens) [compound 441]” is “″+++″ (≥50% = +++)”; for “361 (ALYELEGTTV; listed as Homo sapiens) [compound 361]” it is “″+++″ (≥50% = +++)”; for “91 (IMQDFPAEIFL; listed as Homo sapiens) [compound 91]” it is “″++++″ (≥75% = ++++)”. The entry for “382 (ALQNYIKEA; listed as Homo sapiens) [compound 382]” is “″++″ (≥20% = ++)”. The value for “136 (YLADPSNLFVV; listed as Homo sapiens) [compound 136]” was “″+++″ (≥50% = +++)”; that for “258 (ELAERVPAI; listed as Homo sapiens) [compound 258]” was “″++″ (≥20% = ++)”; that for “299 (YLLETSGNL; listed as Homo sapiens) [compound 299]” was “″+++″ (≥50% = +++)”. In the case of “102 (YLFESEGLVL; listed as Homo sapiens) [compound 102]”, the Peptide exchange entry was “″+++″ (≥50% = +++)”.

Regarding “33 (VLLSLLEKV; listed as Homo sapiens) [compound 33]”, the Peptide exchange result was “″++″ (≥20% = ++)”. As to “342 (HIYDKVMTV; listed as Homo sapiens) [compound 342]”, the Peptide exchange result is “″+++″ (≥50% = +++)”.

Take “190 (FLSSLTETI; listed as Homo sapiens) [compound 190]”: the Peptide exchange entry was “″+++″ (≥50% = +++)”.

Regarding “139 (SVMEVNSGIYRV; listed as Homo sapiens) [compound 139]”, the Peptide exchange result is reported as “″+++″ (≥50% = +++)”. The entry for “315 (YLQDVVEQA; listed as Homo sapiens) [compound 315]” is “″+++″ (≥50% = +++)”; for “469 (YLASDEITTV; listed as Homo sapiens) [compound 469]” it is “″+++″ (≥50% = +++)”; for “477 (ALLPASGQIAL; listed as Homo sapiens) [compound 477]” it is “″+++″ (≥50% = +++)”. The entry for “110 (FLSQVDFEL; listed as Homo sapiens) [compound 110]” is “″+++″ (≥50% = +++)”.

“281 (ILRESTEEL; listed as Homo sapiens) [compound 281]”: the Peptide exchange result is “″+++″ (≥50% = +++)”.

Consider “588 (SLLPLSHLV; listed as Homo sapiens) [compound 588]”, for which the Peptide exchange result is reported as “″+++″ (≥50% = +++)”. The value for “375 (SLTETIEGV; listed as Homo sapiens) [compound 375]” was “″++″ (≥20% = ++)”; that for “529 (LLADELITV; listed as Homo sapiens) [compound 529]” was “″+++″ (≥50% = +++)”; that for “232 (ALLEAQDVELYL; listed as Homo sapiens) [compound 232]” was “″++″ (≥20% = ++)”. The entry for “187 (RQISIRGIVGV; listed as Homo sapiens) [compound 187]” is “″+++″ (≥50% = +++)”; for “314 (ALIAEGIALV; listed as Homo sapiens) [compound 314]” it is “″+++″ (≥50% = +++)”; for “582 (TLCDVILMV; listed as Homo sapiens) [compound 582]” it is “″+++″ (≥50% = +++)”. The value for “298 (VMITKLVEV; listed as Homo sapiens) [compound 298]” was “″+++″ (≥50% = +++)”. For the substance “385 (SLLEQGLVEA; listed as Homo sapiens) [compound 385]”, the Peptide exchange entry is “″++″ (≥20% = ++)”. The entry for “595 (VLLSIYPRV; listed as Homo sapiens) [compound 595]” is “″+++″ (≥50% = +++)”. The value for “395 (ALALGGIAVV; listed as Homo sapiens) [compound 395]” was “″++++″ (≥75% = ++++)”; that for “207 (GLTSTNAEV; listed as Homo sapiens) [compound 207]” was “″++″ (≥20% = ++)”. The value for “44 (ILDPISSGFLL; listed as Homo sapiens) [compound 44]” was “″++″ (≥20% = ++)”; that for “28 (QLLDETSAITL; listed as Homo sapiens) [compound 28]” was “″+++″ (≥50% = +++)”. As for “301 (FLVEDLVDSL; listed as Homo sapiens) [compound 301]”, the Peptide exchange entry is listed as “″+++″ (≥50% = +++)”. The entry for “219 (KLSDIGITV; listed as Homo sapiens) [compound 219]” is “″+++″ (≥50% = +++)”; for “387 (ALFQATAEV; listed as Homo sapiens) [compound 387]” it is “″++++″ (≥75% = ++++)”. As to “131 (FVPPVTVFPSL; listed as Homo sapiens) [compound 131]”, the Peptide exchange entry is “″++″ (≥20% = ++)”. The entry for “567 (SLLPLDDIVRV; listed as Homo sapiens) [compound 567]” is “″+++″ (≥50% = +++)”.

On to “615 (VLPPDTDPA; listed as Homo sapiens) [compound 615]”, for which the Peptide exchange entry is given as “″++″ (≥20% = ++)”.

As for “251 (ALYTGFSILV; listed as Homo sapiens) [compound 251]”, the Peptide exchange result is “″++″ (≥20% = ++)”. The value for “88 (FLLVGDLMAV; listed as Homo sapiens) [compound 88]” was “″+++″ (≥50% = +++)”; that for “601 (SAFPFPVTV; listed as Homo sapiens) [compound 601]” was “″+++″ (≥50% = +++)”. The entry for “195 (GLFADLLPRL; listed as Homo sapiens) [compound 195]” is “″+++″ (≥50% = +++)”; for “127 (KIGDEPPKV; listed as Homo sapiens) [compound 127]” it is “″++″ (≥20% = ++)”. Regarding “570 (ALANQIPTV; listed as Homo sapiens) [compound 570]”, the Peptide exchange result is “″++″ (≥20% = ++)”.

Turning to “165 (SLLDEIRAV; listed as Homo sapiens) [compound 165]”, the Peptide exchange entry was “″+++″ (≥50% = +++)”. As for “579 (NLMEMVAQL; listed as Homo sapiens) [compound 579]”, the Peptide exchange entry is “″++″ (≥20% = ++)”. Turning to “86 (NLIGKIENV; listed as Homo sapiens) [compound 86]”, the Peptide exchange entry is listed as “″+++″ (≥50% = +++)”. The entry for “553 (SLLNQDLHWSL; listed as Homo sapiens) [compound 553]” is “″++++″ (≥75% = ++++)”.
